From the DeepSol protein solubility set

Test: soluble on expression in E. coli; label from the status in PepcDB or PDB records

| Sequence | soluble on expression in E. coli |
| --- | --- |
| MAHHHHHHMIMKKLIENNVIKLNYENFLTKYKLNSGNEQKDLSDEELYEHFIINTFNYSKPLGCLPPNISNIKEYYLDGINIFEVINYVNISERMYKFENITEEDDKENEDDSKEIFSHSEPDEKHDCEIKSRKNNKNSKISNNNKKDGNNIKSNKYRRFYRFLLYDGKSFIYAYEQEYNEIFTYLESNKYIYPKIILYNKPLIRRGAILLKKNQVIILFKGCIVSGNDTEDNEIEDFPIISESNNINSGVHQNIHDDLYTTRNTYDNKNMTDDSHNLIRKFYYADKGMEKEEYKTYYENTNNCGVLSNTNRSNEYYSRSSMHNNNNYSFNEYAKHNYKYDQNHVKKNIEYYYNKDKNCYITSIDYNNNNNNNNNSINNSNNEYTGNNYNNNNKGNHYYYHNIHNNHMHDTHNSKNYIGSNRYNTDKASYNYYNNHYKNKQHYIDPQRNNYYTHGINHDDYSKENYLNAFEYKNHNSYKEPLRNYSNDHPRNSYNKNKYNIFNENKRNSSSKNNRNSSSKNNRNSSNKNNRNSSKEYFKRNSNKFDNAYDNTYHDNNTRINHHSDFSRKNNDGFYRNNDNNYNNETYVKNHFSNEAKYNAGYQRLSDNLENRNRMNCENNNNYYSTYGHSDYNVNYNNKNNRNIPLSNLNEKNNHIPSNNYYTENYLPEKEGNRNILTNQINNYSINSVNNNFEQINPSTCNYNKNNVFPYNKEDDKNKFVEMKNVEEEYHNDNQERARKNSENSKKLIDLTEGFFSSEFFHKSYECNDVNKNSDIIILDD | soluble |
| MSLVVEHNPFAKRYRKGMKRIALVYPNRYVGGITNLGLQYIYARINESDAICERFYADVFDGLRSIESATPLSEFDVALFSLQYETDYFKAVEILKRSGFKGLKIAGGPCVMENPQPLMDYFHAFFIGEVEGYVEELIHAKNAEELSGIPGVFTGREEKVKRVYAKLDRHIEKEIIGEGAYGRCFLLEIGRGCVRRCRFCIVRQIYFPPRWRKKEMLPEIGEEKVAIIAPSPSDHPQFKEILQHYVEQGKEVSPSSVRADTLDEELADLLKKAGVKTLTIAPETASDKLQEVINKGIGDEEVMRAAELASTRFEKVKLYYMVGLPGESFEDVKAILEQALRVKKLVGKVEISVNPLVPKPHTPLQWMGFGGEEELREGISHLKKKLEYLRREARRAGIGADVSGFKEFAIQTILSRGDREVAEMLEGASYRKFEKYLKPINPDSPLPWDFIDHGYRKSTLLKEYDKIKKILEGHHHHHH | not soluble |
| MGIKTQKNFICLKRTFSMNLRDAISVANPVQLEEEIKHDEVVSFLKSKNLLDKPVILNVEGKKVAKNFVSSRETLGKYLGVDAYSIARELSKIEDREAEIRVEPFSSLAMKKVDVNLQELPVIKYFPRDGGRYITAGIVIAQRNGVYNASIHRMLLLDESRVAARLVPPRHTYLMWREAVEREEELEVAVVIGTHPLFLFASATRVPSGKEFSYAAGLMGRLTLYRKGEMLVPDSEIILFGRITAETAKEGPFVDITGTYDIVRDEPVIVFDEMYVKEDYIYYSITPAGKEHQMLMGVPYEPVIYRFVSNVCKVKNVITTPGSCHYFHCVVQIEKKSEGDGKNAIIAALAANPSMKGVVVVDDDIDILSYEDMEFAIATRFQPDRDLVVVKGARGSSLDPSADKTTSKWGIDATKPLGKEGFDRVVLEHHHHHH | not soluble |
| MGSDKIHHHHHHMQWTEEQLPAIHSFAKKLLVQAFAGTGKTTTLVGYATHNSSVKMLYLCYNKAVEIAAKNRFPRNVTCKTAHGLAYAVYGSQYKHKQAGNLRLTDIARTINTQDWELAKDIVSTLNAFMASKDLELLEDHFVRFQSNRTLTSVQQQYMSKALNLTRDVWDKMVDIQDRSVSMTHDGYLKLYQMSQPDLSQRFGAILLDEGQDVNPVIANLVQIQKITQVTVGDRHQQLYRFRGAVDALNSPAMKDAEKHFLTQSFRFGPAVAYVANVILSFKGEKIPLQGLGQPTLVKRALPEDLPHRTYLHRTVSGVIENALRLVNQDHRMQWIGGIDSYSLRDLEDLFYFSRHMNDQVQQRKLLTDYADYDQYVVIAKATQDPEMLRSIKMIENYPDLPKRIEQLRGASVTSELDATVTLSTAHRAKGLEWDFVGLYDDFSADPLSPDIDAGKRDDELNLLYVAVTRAMKILAVNSLVIDIMQRFKDMKQRSRP | not soluble |
| MGSDKIHHHHHHNLKDSDRIFTNLYGRHDYRLKGAMARGDWHKTKEIILKGSDWILGELKTSGLRGRGGAGFPSGMKWGFMNKPFDGRPKYLVVNADEGEPGTCKDREIMRHDPHKLIEGCLIGGVAMGARAAYIYIRGEFYNEACILQEAINEAYKAGYLGKDCLGTGYNFDVFVHRGAGAYICGEETALIESLEGKQGKPRLKPPFPADIGLFGCPTTVTNVETVAVAPTICRRGGDWFASFGRERNRGTKLFCISGQVNNPCTVEEEMSVPLKDLIERHCGGVIGGWDNLLAIIPGGSSVPLMPKN | not soluble |
| MCMGIFNRISNMIKAKTNSALDEMENPVELLDQKIRDMEKSFNEGKRSSAQIFGNLKDTEKKMNEAKEESAQYDEKVRLAMSKGNEELAKKALKLKLDSDKKFESLKASYEGQRAKADVLKGKLVELEKELDKTRSYRDEAVARLNNAEASKQINEVIANVQSKSNSINIDDIERSISRKESYAAGLEELKGESLDDEFAKLEELSLDDELNKYRTQNTQEDKTSDSEVDLELEKYKNKLEHHHHHH | not soluble |
| MPVKCPGEYQVDGKKVILDEDCFMQNPEDWDEKVAEWLARELEGIQKMTEEHWKLVKYLREYWETFGSCPPIKMVTKETGFSLEKIYQLFPSGPAHGACKVAGAPKPTGCV | soluble |
| MSLNRLSIPYSNKSLDYYFFVIQEASVKRAVLARSGEFQATNANFDNTRQLEQWQSLLLSRPSAIISDPIDSQAIVSAIRRYNREKIPVGIIDTPADGGDVAITVSFDNFQGGVMAAEEIVNRLITRYGRPKGTVLNCYGALASVAWRLRKEGMDSVFAKYPGITYLARPTDGQLEKMLSVTLSTLSEYPDLDAVHAPSDSPSRGIVTALQQKGRWKKIGEAGHVIFVNIDGEPIALKWIQDGYMDACISQDPVAYGEIAVDMIVKHALKGEAVPLGTYQDKKYFWESGEGHHHHHH | not soluble |
| GNQRKVSVVGAQSTMDVKDIKMPAASLSSAISGRIAGVVAVQRSGEPGHDESDIWIRGLSSLLGQSSSPLVLVDGVERSFNNIDPEDIESFTVLKDASATAVYGVRGANGVVIVKTKPGKVG | soluble |
| MGSDKIHHHHHHAQRIEELPAVPLQIGYEKTLHLIFPTEVKYYSIGGDYVIGEKVGNCPEIIRLKAAEENFPGETTLSVVTADTKFYSYAISYNAHPVESYVRVDGQAPAPHTLPVGKDRQMFLIFPAGITYVDYGSTNVEVEKAEGVDNILAVKATGEFTEDTNISAVVEGGKFYTFNLHYAPFPERFSFVIDKEKTQRVAILDERERSSEQKERIRQAISKRIPLDLGLKDKNAGMEFEVGNIFIDGDILLLRMTLTNRTQIGYTTDFMRFYIQDAKIHKKTAVQQIEQNILFAFDYPEEIPAHESRTFTVAMNKFTIPDKKRLIIEIQERNGGRHFLYKLKNKSLLGAEEVFRSLQEQKTEDEADRILRRISR | not soluble |
| MSLVEVYLNSSSMIPIDRYYEYDIYDLVIEAYKNFEGEYDVNSIDLIVVANAYSQKLNNASLIAPKIAEKIGKPNVPSIKVDNADASGGAALLTAYSLIKSNMVNSVLIVGVEKQSDYPSKYLYDAISTNLDDYMFYNGISSHSVAALLMRQYMKRYGVDRNYFANWAIKMHKNATENPFAYLRFQVDLNTVINSQIISDPVRLFDVGARADGAAILLLSNNKTESAVKINKILSAQARYDFSPSLPSVRMLRDKLELKFSERTGIDIHDSYSIMAALMLEEAGIFESGKSLHNLDSVNVNLGGGLKARGHVGGASAIYQLAEAHMQLIGSFKGKKASVDNYIVISSDDLGMVSYGINLSREGHHHHHH | not soluble |
| MIGILIPVHNEEQLLDLCLETIKQAAAHPALKGEQVEVLVVLDSCTDRSAEIARAHGVMILEVTARNVGQARAEGAAFLLDRGARWLACTDGDSSVASDWLAEQLALDADAVCGTVTLGDWNNDISAPARAAYLKHYQQRDGHRHIHGANLGVSSIAYISAGGFPSLTCHEDVHLVRQLELIGARIAWSCRPRVTTSTRLNSKARGGFGDYLSSLNALEHHHHHH | not soluble |
| MRKMMQNHQNTRFYFSASLILFNDKEMGKRSNYHHLVAFGGFFKALPDDGDLLTRFVTVEKLKKLPHCKFPFFPVKKPSLSPKMQPSYDADDFMRRGFFGSFIGFRKRSSSKPGELYAKNVTYSQIFSRHLID | soluble |
| MRGSHHHHHHTDPALRADYRKIIKEIGRGKNHARDLDRDTARGLYAHMLNGEVPDLELGGVLIALRIKGEGEAEMLGFYEAMQNHTIKLTPPAGKPMPIVIPSYNGARKQANLTPLLAILLHKLGFPVVVHGVSEDPTRVLTETIFELMGITPTLHGGQAQAKLDEHQPVFMPVGAFCPPLEKQLAMRWRMGVRNSAHTLAKLATPFAEGEALRLSSVSHPEYIGRVAKFFSDIGGRALLMHGTEGEVYANPQRCPQINLIDREGMRVLYEKQDTAGSELLPQAKDPETTAQWIERCLAGSEPIPESLKIQMACCLVATGEAATISDGLARVNQAFGLCGR | soluble |
| MSLTDIKMIALGGVREYGKNFYLVEINDSMFILDAGLKYPENEQLGVDLVIPNLDYVIENKGKVQGIFLSHGHADAIGALPYLLAEVSAPVFGSELTIELAKLFVKSNNSTKKFNNFHVVDSDTEIEFKDGLVSFFRTTHSIPESMGIVIGTDKGNIVYTGDFKFDQAAREGYQTDLLRLAEIGKEGVLALLSDSVNATSNDQIASESEVGEEMDSVISDADGRVIVAAVASNLVRIQQVFDSATAHGRRVVLTGTDAENIVRTALRLEKLMITDERLLIKPKDMSKFEDHELIILEAGRMGEPINSLQKMAAGRHRYVQIKEGDLVYIVTTPSTAKEAMVARVENLIYKAGGSVKLITQNLRVSGHANGRDLQLLMNLLKPQYLFPVQGEYRDLAAHAKLAEEVGIFPENIHILKRGDIMVLNDEGFLHEGGVPASDVMIDGNAIGDVGNIVLRDRKVLSEDGIFIVAITVSKKEKRIISKAKVNTRGFVYVKKSHDILRESAELVNTTVGNYLKKDTFDWGELKGNVRDDLSKFLFEQTKRRPAILPVVMEVREGHHHHHH | soluble |
